Substitutions are numbered along the chain they refer to. Each block holds one binder with its values, some of them ahead of it.
Key:
his6-Sec18 [1] = biological target: T1, his6-Sec18 (S. cerevisiae, UniProt P18759 1-758); experiment: liposome co-floatation
T1 sequence (looked up): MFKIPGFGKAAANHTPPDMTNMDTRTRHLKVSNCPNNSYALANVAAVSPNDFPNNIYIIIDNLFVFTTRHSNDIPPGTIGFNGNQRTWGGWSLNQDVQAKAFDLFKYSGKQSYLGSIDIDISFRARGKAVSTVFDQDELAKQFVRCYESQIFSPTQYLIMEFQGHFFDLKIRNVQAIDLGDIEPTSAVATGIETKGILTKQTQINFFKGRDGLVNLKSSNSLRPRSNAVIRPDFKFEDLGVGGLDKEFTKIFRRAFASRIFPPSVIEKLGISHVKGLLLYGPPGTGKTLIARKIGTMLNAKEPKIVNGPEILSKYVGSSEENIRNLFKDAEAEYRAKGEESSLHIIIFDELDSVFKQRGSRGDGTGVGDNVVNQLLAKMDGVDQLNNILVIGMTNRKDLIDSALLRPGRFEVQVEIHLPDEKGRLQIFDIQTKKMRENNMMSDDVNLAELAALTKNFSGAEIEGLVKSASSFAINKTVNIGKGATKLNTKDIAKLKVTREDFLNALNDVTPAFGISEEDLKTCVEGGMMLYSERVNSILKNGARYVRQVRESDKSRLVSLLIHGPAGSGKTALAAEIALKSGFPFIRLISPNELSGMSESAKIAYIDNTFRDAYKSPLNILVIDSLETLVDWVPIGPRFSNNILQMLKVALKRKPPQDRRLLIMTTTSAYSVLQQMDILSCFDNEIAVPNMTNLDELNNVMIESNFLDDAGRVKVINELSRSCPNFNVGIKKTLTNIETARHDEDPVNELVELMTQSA

his6-Sec18 [2] = biological target: T1, his6-Sec18; experiment: liposome co-floatation; remark: listed apart in the source

- binding result (his6-Sec18 [1]): binds
B1: Sec17-K159EK163E (natural protein, S. cerevisiae, UniProt P32602 1-292, looked up)
chain: MSDPVELLKRAEKKGVPSSGFMKLFSGSDSYKFEEAADLCVQAATIYRLRKELNLAGDSFLKAADYQKKAGNEDEAGNTYVEAYKCFKSGGNSVNAVDSLENAIQIFTHRGQFRRGANFKFELGEILENDLHDYAKAIDCYELAGEWYAQDQSVALSNECFIECADLKALDGQYIEASDIYSKLIKSSMGNRLSQWSLKDYFLKKGLCQLAATDAVAAARTLQEGQSEDPNFADSRESNFLKSLIDAVNEGDSEQLSEHCKEFDNFMRLDKWKITILNKIKESIQQQEDDLL

- stoichiometry N (his6-Sec18 [2]): ~3 mol Sec17 per mol Sec18 hexamer
B2: his6-Sec17 (natural protein, S. cerevisiae, UniProt P32602 1-292, looked up)
chain: B1 chain with E159K, E163K

From publication PMC9634978 (Molecular Biology of the Cell, 2022)
